Measured values reported in US20260209359A1 (NEXTERA, published 2026).

Key:
[1] = target: T1, HLA-A*02:01/MAGE-A4^230-239, soluble recombinant biotinylated pHLA (human, UniProt P04439 25-299 at identity 0.94); P61769 21-119, biotinylated); experiment: ELISA, soluble biotinylated pHLA on neutravidin, scDb, protL-HRP
T1 construct: Empty biotinylated HLA-A2 monomers (Tetramer Shop) loaded with synthetic peptide; also called MAGE-A4 pMHC; MAGE-A4-pHLA

[2] = target: T2, HLA-A*02:01/MAGE-A4^230-239 displayed on cells (MAGE-A4^230-239 pulsed T2 cells; NCI-H1703, A375, THP1, … (human, UniProt P04439 25-365 at identity 0.94); P61769 21-119); experiment: cell-based or functional assay
[3] = target: T2, HLA-A*02:01/MAGE-A4^230-239 displayed …; experiment: cell-based or functional assay; remark: listed apart in the source

Binder | EC50 [1] [pM] | EC50 vs. NCI-H1703 (pM), T-cell specific killing [2] [pM] | IFNγ EC50 vs. target positive cells (pM) [3] [pM]
AM3 scDb (bispecific antibody, as m68) DIRVTQSPSSLSASVGDRVTITCRADHHIFWYLNWYQQKPGKAPKLLIYAASSLQSGVPSRFSGSGSGTDFTLTISSLQPEDFATYYCQQSYSTPYTFGQGTKLEIKGGGGSEVQLQQSGPELVKPGASMKISCKASGYSFTGYTMNWVKQSHGKNLEWMGLINPYKGVSTYNQKFKDKATLTVDKSSSTAYMELLSLTSEDSAVYYCARSGYYGDSDWYFDVWGAGTTVTVSSGGGGSGGGGSGGGGSDIQMTQTTSSLSASLGDRVTISCRASQDIRNYLNWYQQKPDGTVKLLIYYTSRLHSGVPSKFSGSGSGTDYSLTISNLEQEDIATYFCQQGNTLPWTFAGGTKLEIKGGGGSQVQLVQSGAEVKKPGASVKVSCKVSGYTLTELSMHWVRQAPGKGLEWMGGFDPEDGETIYAQKFQGRVTMTEDTSTDTAYMELSSLRSEDTAVYYCATDQGSSWGFYWGQGTLVTVSS | 480 | 3.4 | 5.8
AM4 scDb (bispecific antibody, as m68) DIRVTQSPSSLSASVGDRVTITCRADIDIRWYLNWYQQKPGKAPKLLIYAASSLQSGVPSRFSGSGSGTDFTLTISSLQPEDFATYYCQQSYSTPYTFGQGTKLEIKGGGGSEVQLQQSGPELVKPGASMKISCKASGYSFTGYTMNWVKQSHGKNLEWMGLINPYKGVSTYNQKFKDKATLTVDKSSSTAYMELLSLTSEDSAVYYCARSGYYGDSDWYFDVWGAGTTVTVSSGGGGSGGGGSGGGGSDIQMTQTTSSLSASLGDRVTISCRASQDIRNYLNWYQQKPDGTVKLLIYYTSRLHSGVPSKFSGSGSGTDYSLTISNLEQEDIATYFCQQGNTLPWTFAGGTKLEIKGGGGSQVQLVQSGAEVKKPGASVKVSCKVSGYTLTELSMHWVRQAPGKGLEWMGGFDPEDGETIYAQKFQGRVTMTEDTSTDTAYMELSSLRSEDTAVYYCATDQGSSWGFYWGQGTLVTVSS | 280 | 3.1 | 4.5
AM5 scDb (bispecific antibody, as m68) DIRVTQSPSSLSASVGDRVTITCRASQSISSYLNWYQQKPGKAPKLLIYAASSLQSGVPSRFSGSGSGTDFTLTISSLQPEDFATYYCQQAYRIPYTFGQGTKLEIKGGGGSEVQLQQSGPELVKPGASMKISCKASGYSFTGYTMNWVKQSHGKNLEWMGLINPYKGVSTYNQKFKDKATLTVDKSSSTAYMELLSLTSEDSAVYYCARSGYYGDSDWYFDVWGAGTTVTVSSGGGGSGGGGSGGGGSDIQMTQTTSSLSASLGDRVTISCRASQDIRNYLNWYQQKPDGTVKLLIYYTSRLHSGVPSKFSGSGSGTDYSLTISNLEQEDIATYFCQQGNTLPWTFAGGTKLEIKGGGGSQVQLVQSVAEVKKPGASVKVSCKVSGYTLTELSMHWVRQAPGKGLEWMGGFDPEDGETIYAQKFQGRVTMTEDTSTDTAYMELSSLRSEDTAVYYCAADQGSSWGFYWGQGTLVTVSS | 1030 | 6.4 | 9
AM12 scDb (bispecific antibody, as m68) DIRVTQSPSSLSASVGDRVTITCRASQNIMWYLNWYQQKPGKAPKLLIYAASSLQSGVPSRFSGSGSGTDFTLTISSLQPEDFATYYCQQSYSTPYTFGQGTKLEIKGGGGSEVQLQQSGPELVKPGASMKISCKASGYSFTGYTMNWVKQSHGKNLEWMGLINPYKGVSTYNQKFKDKATLTVDKSSSTAYMELLSLTSEDSAVYYCARSGYYGDSDWYFDVWGAGTTVTVSSGGGGSGGGGSGGGGSDIQMTQTTSSLSASLGDRVTISCRASQDIRNYLNWYQQKPDGTVKLLIYYTSRLHSGVPSKFSGSGSGTDYSLTISNLEQEDIATYFCQQGNTLPWTFAGGTKLEIKGGGGSQVQLVQSGAEVKKPGASVKVSCKVSGYTLTELSMHWVRQAPGKGLEWMGGFDPEQGETIYAQKFQGRVTMTEDTSTDTAYMELSSLRSEDTAVYYCATDQGASWGFYWGQGTLVTVSS | 120 | 4.3 | 6.4
